The record followed here is paper PMC6386614.

The target of this series is T1, hnRNP H1-His6 (UniProt P31943 1-449).
T1 sequence: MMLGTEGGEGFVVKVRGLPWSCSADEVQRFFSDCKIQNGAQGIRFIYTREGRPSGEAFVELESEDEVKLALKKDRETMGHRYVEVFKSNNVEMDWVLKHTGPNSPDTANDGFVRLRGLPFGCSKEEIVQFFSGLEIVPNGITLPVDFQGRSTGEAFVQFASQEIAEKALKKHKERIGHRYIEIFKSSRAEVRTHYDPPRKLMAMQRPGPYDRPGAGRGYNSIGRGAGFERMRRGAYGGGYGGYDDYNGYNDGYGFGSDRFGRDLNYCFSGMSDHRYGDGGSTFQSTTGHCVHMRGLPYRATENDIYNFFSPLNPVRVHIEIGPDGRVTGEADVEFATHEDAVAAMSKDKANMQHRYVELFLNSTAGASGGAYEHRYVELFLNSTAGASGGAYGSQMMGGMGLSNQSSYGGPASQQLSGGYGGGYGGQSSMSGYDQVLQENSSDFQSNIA
The series can be described thus: EMSA. A general note: Mobility shift assays separate free from complexed probe on a gel.

The molecule GGGGCCGGGGCCGGGGCCGGGGCCGGGGCCGGGGCCGGGGCCGGGGCC (structured_RNA) [r(G4C2)8 (32P)] came in with an equilibrium dissociation constant (Kd) of 65 ± 26 nM.

The Kd is the concentration at which binding is half-saturated.
